Publication PMC6323126, “Architecture, substructures, and dynamic assembly of STRIPAK complexes in Hippo signaling” (Cell Discovery, 2019)

T1: MST2 (recombinant, wildtype) (human, UniProt Q13188 1-491)
T1 construct: MST2 (STK3), human; also called STK3; Hippo kinase MST2; source: E. coli BL21 (DE3) CodonPlus, purified
T1 sequence (looked up): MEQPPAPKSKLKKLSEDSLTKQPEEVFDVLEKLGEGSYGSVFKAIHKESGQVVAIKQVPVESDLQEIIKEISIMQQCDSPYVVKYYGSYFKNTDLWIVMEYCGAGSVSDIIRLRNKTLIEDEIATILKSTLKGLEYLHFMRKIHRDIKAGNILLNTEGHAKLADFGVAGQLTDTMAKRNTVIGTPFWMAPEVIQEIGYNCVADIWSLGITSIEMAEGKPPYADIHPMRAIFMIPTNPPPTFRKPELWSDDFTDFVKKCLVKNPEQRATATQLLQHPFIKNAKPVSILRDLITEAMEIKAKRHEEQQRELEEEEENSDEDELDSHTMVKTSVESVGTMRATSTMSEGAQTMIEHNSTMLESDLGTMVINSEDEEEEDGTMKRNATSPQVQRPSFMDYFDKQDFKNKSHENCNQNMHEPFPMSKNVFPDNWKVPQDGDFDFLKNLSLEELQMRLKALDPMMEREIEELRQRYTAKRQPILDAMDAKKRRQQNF

T2: MST2 kinase domain (residues 1–308) (human, UniProt Q13188 1-308)
T2 construct: also called kinase domain of MST2; source: E. coli BL21 (DE3) CodonPlus, purified
T2 sequence (looked up): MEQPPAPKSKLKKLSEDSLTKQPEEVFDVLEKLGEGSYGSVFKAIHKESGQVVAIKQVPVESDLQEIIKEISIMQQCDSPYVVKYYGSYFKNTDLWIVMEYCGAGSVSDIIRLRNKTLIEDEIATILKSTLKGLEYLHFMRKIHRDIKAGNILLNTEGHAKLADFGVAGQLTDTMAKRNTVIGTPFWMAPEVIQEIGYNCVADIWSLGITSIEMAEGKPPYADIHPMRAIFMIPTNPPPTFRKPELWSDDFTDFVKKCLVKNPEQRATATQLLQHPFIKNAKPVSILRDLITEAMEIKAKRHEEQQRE

T3: SIKE1 CC1 (residues 5–65) (human, UniProt Q9BRV8 5-65)
T3 construct: SIKE1, human, residues 5-65; Homodimer within the 2:2 crystal complex; also called residues 5–65 of SIKE1; source: E. coli BL21 (DE3) CodonPlus, purified
T3 sequence (looked up): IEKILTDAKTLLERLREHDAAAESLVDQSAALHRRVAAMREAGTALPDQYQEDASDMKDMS

B1: FHA domain (residues 5–135) of SLMAP (domain or fragment, human, UniProt Q14BN4 5-135, looked up)
chain: LAIFTCRPNSHPFQERHVYLDEPIKIGRSVARCRPAQNNATFDCKVLSRNHALVWFDHKTGKFYLQDTKSSNGTFINSQRLSRGSEESPPCEILSGDIIQFGVDVTENTRKVTHGCIVSTIKLFLPDGMEA
notes: also called SLMAP (FHA); SLMAP FHA domain; source: E. coli BL21 (DE3) CodonPlus, purified
B2: SLMAP CC1 (residues 167–226) (domain or fragment, human, UniProt Q14BN4 167-226, looked up)
chain: QLSQYLQEALHREQMLEQKLATLQRLLAITQEASDTSWQALIDEDRLLSRLEVMGNQLQA
notes: Homodimer within the 2:2 crystal complex; source: E. coli BL21 (DE3) CodonPlus, purified

Assays:
[1] = target: T4, MST4 kinase domain (residues 1–300) (human, UniProt Q9P289 1-300); assay: pull-down; pulldown with purified recombinant proteins shown in supplementary figures; whether GST or MBP and who carried the tag not told; details: both partners purified
T4 construct: MST4 (STK26), human, residues 1-300; also called N-terminal kinase domain of MST4; source: E. coli BL21 (DE3) CodonPlus, purified
T4 sequence (Q9P289 1-300): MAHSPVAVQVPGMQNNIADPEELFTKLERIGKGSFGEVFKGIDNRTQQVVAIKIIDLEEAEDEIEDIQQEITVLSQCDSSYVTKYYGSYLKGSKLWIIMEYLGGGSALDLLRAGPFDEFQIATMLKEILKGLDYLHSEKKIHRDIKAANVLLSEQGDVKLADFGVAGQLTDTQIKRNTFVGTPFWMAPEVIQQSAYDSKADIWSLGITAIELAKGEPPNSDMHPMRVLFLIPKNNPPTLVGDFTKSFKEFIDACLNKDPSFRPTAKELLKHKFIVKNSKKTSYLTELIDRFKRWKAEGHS

[2] = target: T5, MST4 (recombinant) (human, UniProt Q9P289 1-416); assay: as above; details: both partners purified
T5 construct: MST4 (STK26), human; also called STK26; source: E. coli BL21 (DE3) CodonPlus, purified
T5 sequence (Q9P289 whole entry): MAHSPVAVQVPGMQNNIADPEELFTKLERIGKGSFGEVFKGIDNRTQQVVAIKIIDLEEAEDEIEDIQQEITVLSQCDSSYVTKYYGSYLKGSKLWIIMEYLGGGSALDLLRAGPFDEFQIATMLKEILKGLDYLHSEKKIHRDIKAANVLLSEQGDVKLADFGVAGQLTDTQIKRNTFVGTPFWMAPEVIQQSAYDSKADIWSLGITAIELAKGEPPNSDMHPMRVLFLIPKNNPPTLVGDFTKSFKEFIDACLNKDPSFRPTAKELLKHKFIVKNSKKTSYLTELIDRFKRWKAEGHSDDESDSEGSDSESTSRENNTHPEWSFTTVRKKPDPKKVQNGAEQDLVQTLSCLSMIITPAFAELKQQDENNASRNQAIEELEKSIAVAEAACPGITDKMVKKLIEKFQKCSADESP

[3] = target: T1, MST2 (recombinant, wildtype); assay: as above; details: both partners purified
[4] = target: T2, MST2 kinase domain (residues 1–308); assay: pull-down; GST pulldown: GST-tagged protein, partner and glutathione Sepharose mixed at 4 °C for 1 h in 20 mM HEPES (pH 7.5), 100 mM NaCl; eluted with 20 mM reduced glutathione; SDS-PAGE, Coomassie staining; details: both partners purified
[5] = target: T3, SIKE1 CC1 (residues 5–65); assay: not stated; Kd of the minimal regions, Supplementary Fig. S7c; method not given; details: both partners purified
[6] = target: T3, SIKE1 CC1 (residues 5–65); assay: crystal structure; SIKE1 CC1-SLMAP CC1 complex reconstituted 1:1 and gel-filtered, 2.3 Å; 0.1 M sodium citrate (pH 5.5), 15% PEG 6000, 16 °C; details: both partners purified
[7] = target: the molecule itself; assay: as above

Binder | binding result [1] | binding result [2] | binding result [3] | binding result [4] | Kd [5] [µM] | stoichiometry N [6] | stoichiometry N [7]
B1 | binds | binds | binds | binds |  |  | 
B2 |  |  |  |  | 6.9 | 1 SIKE1 CC1 per SLMAP CC1 (2:2) | 2
